Laboratory results as given in publication PMC9835603, “A conserved SH3-like fold in diverse putative proteins tetramerizes into an oxidoreductase providing an antimicrobial resistance phenotype” (Philosophical Transactions of the Royal Society B: …, 2023).
Values joined by “and” are separate entries in the source; they are usually repeats but may differ in a detail not shown here. Equal values may be shown once. Read-outs that look alike come from different tables or passages of the source.

What was measured:
[1] = target: T1, DfrB-H5 (Methylobacterium pseudosasicola, UniProt A0A1I4V6W3); assay: dihydrofolate reductase activity assay at […] nm with purified enzyme; Ki from IC50 by Cheng-Prusoff; format: biochemical
T1 construct: gene SAMN05192568_10896; full-length 365-residue protein, N-terminal His6 tag

[2] = test system: NC(=O)C1=CN([C@@H]2O[C@H](COP(=O)(O)OP(=O)(O)OC[C@H]3O[C@@H](n4cnc5c(N)ncnc54)[C@H](OP(=O)(O)O)[C@@H]3O)[C@@H](O)[C@H]2O)C=CC1; assay: steady-state kinetics (KM) with purified enzyme; format: biochemical, Escherichia coli; conditions: varied: cofactor
[3] = target: DfrB-H5 (distant DfrB homologue from Methylobacterium pseudosasicola) (Methylobacterium pseudosasicola); assay: negative-stain electron microscopy; purified protein from a single gel filtration peak, 40 ng/ul, uranyl formate stain, two-dimensional classification
[4] = target: DfrB-H5 (distant DfrB homologue from Methylobacterium pseudosasicola) (Methylobacterium pseudosasicola); assay: as above; remark: listed apart in the source
[5] = target: His6-DfrB1 (type B dihydrofolate reductase DfrB1); assay: SEC-MALS; SEC-MALLS; Superdex 200 10/300 GL for DfrB-H5, Superdex 75 10/300 GL for DfrB1, 0.4 ml/min
[6] = target: His6-DfrB1 (type B dihydrofolate reductase DfrB1); assay: negative-stain electron microscopy; purified protein from a single gel filtration peak, 40 ng/ul, uranyl formate stain, two-dimensional classification

Q: How did the Ki ([1]; read-out: 1 / Ki) turn out when `O=C(O)c1ccc2[nH]c(-c3ccc(OCCCCCOc4ccc(-c5nc6cc(C(=O)O)ccc6[nH]5)cc4)cc3)nc2c1` [compound 1, 2,2′-[1,5-pentanediylbis(4-oxyphenylene)]-bis-1H-benzimidazole-5-carboxylic acid] was run?
A: 12 ± 6 µM

Q: `CC1(C)Nc2nc(N)[nH]c(=O)c2N=C1C(=O)NCCN1CCC(SC[C@H]2O[C@@H](n3cnc4c(N)ncnc43)[C@H](O)[C@@H]2O)CC1` [compound 2, 2-amino-N-(2-(4-((((2S,3S,4R,5R)-5-(6-amino-9H-purin-9-yl)-3,4-dihydroxytetrahydrofuran-2-yl)methyl)thio)piperidin-1-yl)ethyl)-7,7-dimethyl-4-oxo-3,4,7,8-tetrahydropteridine-6-carboxamide] was tested. Which Ki ([1]; read-out: 2 / Ki) did it give?
A: 30 ± 10 µM

Q: Which Km [2] does the source give for DfrB1 (Escherichia coli; Y69L) here?
A: 170 ± 20 µM

Q: “DfrB-H5 (distant DfrB homologue from Methylobacterium pseudosasicola) (enzyme)” was tested. Which stoichiometry N [3] did it give?
A: 4

Q: What about the stoichiometry N [4] of the same compound?
A: 2 and 3

Q: Which results are given for “His6-DfrB1 (type B dihydrofolate reductase DfrB1) (enzyme)”?
A: stoichiometry N [5]: 4; stoichiometry N [6]: 4
